Assay results taken from US11306156.
Read-outs that look alike come from different tables or passages of the source.

Assays:
[1] = molecular target: tissue factor (TF) antigen (UniProt P13726); test: SPR; against wild-type D3H44 Fab; * estimated from the same Fab with another L chain tag
[2] = molecular target: tissue factor (TF) antigen (UniProt P13726); test: SPR (ProteOn), Fab captured on anti-penta His, TF as analyte, 1:1 fit; * estimated from the same Fab with another L chain tag
[3] = molecular target: D3H44 light chain Q124E_Q160E_T180E; test: SMCA: 2 heavy + 2 light chains co-expressed, protein A, LC-MS; competing light chain m4
[4] = molecular target: D3H44 light chain P44F_S131K; test: SMCA: LC-MS of protein A purified product after co-expression of H1, H2, L1, L2 in CHO-3E7; competing light chain m46
[5] = molecular target: D3H44 light chain P44F_Q124R_Q160K_T178R; test: as above
[6] = molecular target: D3H44 light chain Q124E_V133W_S176T_T178L_T180E; test: SMCA co-expression, LC-MS; competing light chain m6
[7] = molecular target: D3H44 light chain Q124E_V133W_S176T_T178L_T180E; test: SMCA: 2 heavy + 2 light chains co-expressed, protein A, LC-MS; competing light chain m24
D3H44 light chain Q124R = test: SMCA: LC-MS of protein A purified product after co-expression of H1, H2, L1, L2 in CHO-3E7; competing light chain m50
[8] = molecular target: D3H44 light chain Q124R_Q160K_T178R; test: SMCA: LC-MS of protein A purified product after co-expression of H1, H2, L1, L2 in CHO-3E7; competing light chain m48
[9] = molecular target: D3H44 Fab heavy chain L124R_D146N_Q179K (H1 of LCCA sets 9358, 9359, 9357, 9351, 9352, 9353, 9354, 9350); test: LCCA: H1 co-expressed with L1 and L2 (DNA 333:250:749 ng), His-tag capture on SPR chip, light chain tags detected with anti-HA/anti-FLAG; competitor L2 Q124K_V133G_Q160K_S176R
[10] = molecular target: D3H44 Fab heavy chain L124R_Q179K; test: LCCA, SPR of light chain tags; L1:L2 DNA 1:9 normalized to 1:1; competitor m10
[11] = molecular target: D3H44 Fab heavy chain L124E_L143E_K145T; test: as above
[12] = molecular target: D3H44 Fab heavy chain L124R_D146N_Q179K; test: LCCA, SPR of light chain tags; L1:L2 DNA 1:3 normalized to 1:1; competitor m8
[13] = molecular target: D3H44 Fab heavy chain L124E_K145M_Q179E; test: as above
[14] = molecular target: D3H44 Fab heavy chain L124R_D146N_Q179K; test: LCCA, L1:L2 DNA 1:3 normalised to 1:1, SPR of light chain tags; competitor m55
[15] = molecular target: D3H44 Fab heavy chain L124E_L143E_K145M; test: as above
[16] = molecular target: D3H44 Fab heavy chain L124E_L143D_K145T (H1 of LCCA sets 9214, 9217, 9216, 9219, 9220, 9225, 9228, 9229); test: LCCA: H1 co-expressed with L1 and L2 (DNA 333:250:749 ng), His-tag capture on SPR chip, light chain tags detected with anti-HA/anti-FLAG; competitor L1 Q124K_V133G_S176R_T178K
[17] = molecular target: D3H44 Fab heavy chain L124E_L143E_K145M (H1 of LCCA sets 9269, 9266, 9267, 9260, 9262, 9263); test: LCCA: H1 co-expressed with L1 and L2 (DNA 333:250:749 ng), His-tag capture on SPR chip, light chain tags detected with anti-HA/anti-FLAG; competitor L1 Q124K_V133G_S176R_T178R
[18] = molecular target: D3H44 Fab heavy chain L124E_L143D_K145T (H1 of LCCA sets 9214, 9217, 9216, 9219, 9220, 9225, 9228, 9229); test: as above
[19] = molecular target: D3H44 Fab heavy chain L124R_Q179K; test: LCCA, SPR of light chain tags; L1:L2 DNA 1:3 normalized to 1:1; competitor m10
[20] = molecular target: D3H44 Fab heavy chain L124E_L143E_K145T; test: as above
[21] = molecular target: D3H44 Fab heavy chain L124R_D146N_Q179K (H1 of LCCA sets 9358, 9359, 9357, 9351, 9352, 9353, 9354, 9350)
[22] = molecular target: D3H44 Fab heavy chain L124R_D146N_Q179K (H1 of LCCA sets 9358, 9359, 9357, 9351, 9352, 9353, 9354, 9350); test: LCCA: H1 co-expressed with L1 and L2 (DNA 333:250:749 ng), His-tag capture on SPR chip, light chain tags detected with anti-HA/anti-FLAG; competitor L2 Q124K_V133G_S176R_T178K
[23] = molecular target: D3H44 Fab heavy chain L124R_D146N_Q179K (H1 of LCCA sets 9358, 9359, 9357, 9351, 9352, 9353, 9354, 9350); remark: listed apart in the source
[24] = molecular target: D3H44 Fab heavy chain L124E_L143D_K145T (H1 of LCCA sets 9214, 9217, 9216, 9219, 9220, 9225, 9228, 9229); test: LCCA: H1 co-expressed with L1 and L2 (DNA 333:250:749 ng), His-tag capture on SPR chip, light chain tags detected with anti-HA/anti-FLAG; competitor L2 Q124E_V133G_S176D_T178E_T180E
[25] = molecular target: D3H44 Fab heavy chain L124E_L143E_K145M (H1 of LCCA sets 9269, 9266, 9267, 9260, 9262, 9263)
[26] = molecular target: D3H44 Fab heavy chain L124E_L143D_K145T (H1 of LCCA sets 9214, 9217, 9216, 9219, 9220, 9225, 9228, 9229)
[27] = molecular target: D3H44 Fab heavy chain L124R_D146N_Q179K (H1 of LCCA sets 9358, 9359, 9357, 9351, 9352, 9353, 9354, 9350); test: LCCA: H1 co-expressed with L1 and L2 (DNA 333:250:749 ng), His-tag capture on SPR chip, light chain tags detected with anti-HA/anti-FLAG; competitor L1 Q124E_V133G_S176D_T178E_T180E
[28] = molecular target: D3H44 Fab heavy chain L124E_L143D_K145T (H1 of LCCA sets 9214, 9217, 9216, 9219, 9220, 9225, 9228, 9229); test: LCCA: H1 co-expressed with L1 and L2 (DNA 333:250:749 ng), His-tag capture on SPR chip, light chain tags detected with anti-HA/anti-FLAG; competitor L2 Q124E_V133G_S176D_T178D_T180E
[29] = molecular target: D3H44 Fab heavy chain L124R_D146N_Q179K; test: LCCA, L1:L2 DNA 1:3 normalised to 1:1, SPR of light chain tags; competitor m56
[30] = molecular target: D3H44 Fab heavy chain L124E_L143E_K145M; test: as above
[31] = molecular target: D3H44 Fab heavy chain L124E_L143E_K145M (H1 of LCCA sets 9269, 9266, 9267, 9260, 9262, 9263); test: LCCA: H1 co-expressed with L1 and L2 (DNA 333:250:749 ng), His-tag capture on SPR chip, light chain tags detected with anti-HA/anti-FLAG; competitor L2 V133G_S176D_T178D_T180E
[32] = molecular target: D3H44 Fab heavy chain L124E_L143D_K145T (H1 of LCCA sets 9214, 9217, 9216, 9219, 9220, 9225, 9228, 9229); test: as above
[33] = molecular target: D3H44 Fab heavy chain L124E_L143E_K145M (H1 of LCCA sets 9269, 9266, 9267, 9260, 9262, 9263); remark: listed apart in the source
[34] = molecular target: D3H44 Fab heavy chain L124E_L143D_K145T (H1 of LCCA sets 9214, 9217, 9216, 9219, 9220, 9225, 9228, 9229); remark: listed apart in the source

## D3H44 Fab heterodimer, H1 L124E_L143E_K145T / L1 Q124K_V133G_S176R_T178K (H1L1 of LCCA sets 9308 and 9300)
[1]
  Change in KD with respect to wild type (-(log(KD design) - log(KD wt))): -0.12
[2]
  Kd: 0.21 nM

## D3H44 heavy chain H172R_S186R (from UniProt P0DOX5 2-448)
[3]
  % H1L1 Pairing (over all H1 species): 100%

## D3H44 heavy chain L45P_K145T_H172R_Q179E (from UniProt P0DOX5 2-448)
[4]
  % H1L1 Pairing (over all H1 species): 75.5%

## D3H44 heavy chain L45P_L143E_K145T (from UniProt P0DOX5 2-448)
[5]
  % H1L1 Pairing (over all H1 species): 88.1%

## D3H44 heavy chain L124A_L143F_Q179K (from UniProt P0DOX5 2-448)
[6]
  % H1L1 Pairing (over all H1 species): 100%
  Change in % H1L1 Pairing (over all H1 species) with respect to wild type: 38.1%
[7]
  % H1L1 Pairing (over all H1 species): 100%

## D3H44 heavy chain L143E_K145T (from UniProt P0DOX5 2-448)
D3H44 light chain Q124R
  % H1L1 Pairing (over all H1 species): 91.5%
[8]
  % H1L1 Pairing (over all H1 species): 83.2%

## D3H44 light chain Q124E_V133G_S176D_T178E_T180E
[9]
  median LCCA performance normalized to a L1:L2 DNA ratio of 1:1 (ratio H1-L1:H1-L2), H1-L1 share (ratio part of 100): 82
[10]
  H2L2:H2L1 normalized median ratio (% of heavy chain paired): 84
[11]
  H1L1:H1L2 normalized median ratio (% of heavy chain paired): 2
[12]
  H2L2:H2L1 normalized median ratio (% of heavy chain paired): 90
[13]
  H1L1:H1L2 normalized median ratio (% of heavy chain paired): 6
[14]
  H2L2:H2L1 normalized median ratio: 84%
[15]
  H1L1:H1L2 normalized median ratio: 16%
[16]
  median LCCA performance normalized to a L1:L2 DNA ratio of 1:1 (ratio H1-L1:H1-L2), H1-L2 share (ratio part of 100): 21
[17]
  median LCCA performance normalized to a L1:L2 DNA ratio of 1:1 (ratio H1-L1:H1-L2), H1-L2 share (ratio part of 100): 16
[18]
  median LCCA performance normalized to a L1:L2 DNA ratio of 1:1 (ratio H1-L1:H1-L2), H1-L2 share (ratio part of 100): 17
[19]
  H2L2:H2L1 normalized median ratio (% of heavy chain paired): 92
[20]
  H1L1:H1L2 normalized median ratio (% of heavy chain paired): 5
[21]
  median LCCA performance normalized to a L1:L2 DNA ratio of 1:1 (ratio H1-L1:H1-L2), H1-L1 share (ratio part of 100): 89
[22]
  median LCCA performance normalized to a L1:L2 DNA ratio of 1:1 (ratio H1-L1:H1-L2), H1-L1 share (ratio part of 100): 84
[23]
  median LCCA performance normalized to a L1:L2 DNA ratio of 1:1 (ratio H1-L1:H1-L2), H1-L1 share (ratio part of 100): 90

## D3H44 light chain Q124K_V133G_S176R_T178K
[24]
  median LCCA performance normalized to a L1:L2 DNA ratio of 1:1 (ratio H1-L1:H1-L2), H1-L1 share (ratio part of 100): 79
[25]
  median LCCA performance normalized to a L1:L2 DNA ratio of 1:1 (ratio H1-L1:H1-L2), H1-L1 share (ratio part of 100): 88
[26]
  median LCCA performance normalized to a L1:L2 DNA ratio of 1:1 (ratio H1-L1:H1-L2), H1-L1 share (ratio part of 100): 81
[27]
  median LCCA performance normalized to a L1:L2 DNA ratio of 1:1 (ratio H1-L1:H1-L2), H1-L2 share (ratio part of 100): 16
[28]
  median LCCA performance normalized to a L1:L2 DNA ratio of 1:1 (ratio H1-L1:H1-L2), H1-L1 share (ratio part of 100): 85
[29]
  H2L2:H2L1 normalized median ratio: 16%
[30]
  H1L1:H1L2 normalized median ratio: 84%
  H1L1:H1L2 normalized median scalar value ln(r1/f1): 1.67
[31]
  median LCCA performance normalized to a L1:L2 DNA ratio of 1:1 (ratio H1-L1:H1-L2), H1-L1 share (ratio part of 100): 63
[32]
  median LCCA performance normalized to a L1:L2 DNA ratio of 1:1 (ratio H1-L1:H1-L2), H1-L1 share (ratio part of 100): 82
[33]
  median LCCA performance normalized to a L1:L2 DNA ratio of 1:1 (ratio H1-L1:H1-L2), H1-L1 share (ratio part of 100): 85
[34]
  median LCCA performance normalized to a L1:L2 DNA ratio of 1:1 (ratio H1-L1:H1-L2), H1-L1 share (ratio part of 100): 84
